T1: M2 (h) (human), P08172
T1 chain: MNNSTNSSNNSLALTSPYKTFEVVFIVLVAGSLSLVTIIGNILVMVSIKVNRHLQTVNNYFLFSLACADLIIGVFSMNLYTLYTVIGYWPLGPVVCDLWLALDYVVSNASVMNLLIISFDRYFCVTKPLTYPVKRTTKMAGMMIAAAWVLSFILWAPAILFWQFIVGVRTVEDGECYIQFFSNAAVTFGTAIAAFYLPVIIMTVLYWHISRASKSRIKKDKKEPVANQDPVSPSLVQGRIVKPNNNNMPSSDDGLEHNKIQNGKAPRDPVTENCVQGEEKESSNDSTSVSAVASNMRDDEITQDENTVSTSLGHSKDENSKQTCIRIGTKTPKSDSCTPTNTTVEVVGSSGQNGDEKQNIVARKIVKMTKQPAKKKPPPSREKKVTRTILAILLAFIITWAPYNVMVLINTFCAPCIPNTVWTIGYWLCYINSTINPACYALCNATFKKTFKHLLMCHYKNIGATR

T2: alpha 1A (h) (human), P35348
T2 chain: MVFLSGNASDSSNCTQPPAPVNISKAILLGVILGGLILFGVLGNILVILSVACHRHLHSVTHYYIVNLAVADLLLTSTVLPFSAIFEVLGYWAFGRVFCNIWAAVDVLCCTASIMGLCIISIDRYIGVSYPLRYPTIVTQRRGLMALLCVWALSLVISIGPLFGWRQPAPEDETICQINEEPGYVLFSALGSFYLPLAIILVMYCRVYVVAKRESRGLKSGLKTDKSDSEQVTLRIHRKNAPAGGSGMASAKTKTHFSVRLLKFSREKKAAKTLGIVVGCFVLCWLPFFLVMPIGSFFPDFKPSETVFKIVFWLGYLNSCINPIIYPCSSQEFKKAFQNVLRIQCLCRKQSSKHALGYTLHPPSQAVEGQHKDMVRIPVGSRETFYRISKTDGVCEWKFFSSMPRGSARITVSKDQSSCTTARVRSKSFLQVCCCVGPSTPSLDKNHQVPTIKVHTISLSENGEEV

T3: alpha 2A (h) (human), P08913
T3 chain: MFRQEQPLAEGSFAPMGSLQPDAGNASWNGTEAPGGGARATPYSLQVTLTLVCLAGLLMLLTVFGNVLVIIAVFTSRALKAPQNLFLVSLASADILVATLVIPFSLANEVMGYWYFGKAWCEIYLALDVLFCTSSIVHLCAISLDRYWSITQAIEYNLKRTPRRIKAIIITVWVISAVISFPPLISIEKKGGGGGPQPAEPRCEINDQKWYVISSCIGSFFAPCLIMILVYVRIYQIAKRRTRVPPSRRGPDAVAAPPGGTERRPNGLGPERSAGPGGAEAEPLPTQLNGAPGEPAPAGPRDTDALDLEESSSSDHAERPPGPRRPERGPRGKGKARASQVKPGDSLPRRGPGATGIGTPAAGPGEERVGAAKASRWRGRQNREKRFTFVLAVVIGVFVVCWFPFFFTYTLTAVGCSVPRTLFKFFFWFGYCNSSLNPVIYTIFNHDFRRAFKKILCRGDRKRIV

T4: ETA (h) (human), P25101
T4 chain: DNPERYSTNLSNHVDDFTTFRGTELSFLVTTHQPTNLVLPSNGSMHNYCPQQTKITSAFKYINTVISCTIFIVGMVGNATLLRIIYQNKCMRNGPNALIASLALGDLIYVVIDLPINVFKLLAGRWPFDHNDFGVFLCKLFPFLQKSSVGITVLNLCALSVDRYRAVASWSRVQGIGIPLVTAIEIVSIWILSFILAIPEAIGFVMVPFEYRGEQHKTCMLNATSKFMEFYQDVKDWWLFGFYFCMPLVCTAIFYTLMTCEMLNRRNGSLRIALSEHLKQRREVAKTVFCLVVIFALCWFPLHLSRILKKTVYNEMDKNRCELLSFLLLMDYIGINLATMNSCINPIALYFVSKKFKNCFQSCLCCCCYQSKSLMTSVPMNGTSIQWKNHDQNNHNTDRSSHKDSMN

T5: CB1 (h) (human), P21554
T5 chain: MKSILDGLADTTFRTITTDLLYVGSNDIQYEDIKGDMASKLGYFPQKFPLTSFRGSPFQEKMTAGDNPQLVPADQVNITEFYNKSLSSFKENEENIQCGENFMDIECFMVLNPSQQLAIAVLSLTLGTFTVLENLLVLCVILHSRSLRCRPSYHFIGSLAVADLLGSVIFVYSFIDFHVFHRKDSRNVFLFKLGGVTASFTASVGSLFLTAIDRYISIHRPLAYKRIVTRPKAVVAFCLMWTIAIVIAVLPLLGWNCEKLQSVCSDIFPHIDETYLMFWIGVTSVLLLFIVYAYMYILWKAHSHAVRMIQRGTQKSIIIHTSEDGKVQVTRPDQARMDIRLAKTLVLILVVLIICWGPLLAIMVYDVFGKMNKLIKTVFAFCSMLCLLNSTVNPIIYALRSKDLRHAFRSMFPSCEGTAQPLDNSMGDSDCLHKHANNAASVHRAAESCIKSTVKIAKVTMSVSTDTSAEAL


How the values were obtained:
Assay in all cases: radioligand displacement, compound at 10 µM
Details in all cases: remark: other sources report otherwise
H2 (h) (human), P25021 = target: H2 (h) (human), P25021
M2 (h) (human), P08172 = target: T1, M2 (h) (human), P08172
[1] = target: T2, alpha 1A (h) (human), P35348
[2] = target: 5-HT1B (h) (human), P28222
[3] = target: T3, alpha 2A (h) (human), P08913
[4] = target: kappa (h) (KOP) (human), P41145
ETA (h) (human), P25101 = target: T4, ETA (h) (human), P25101
M3 (h) (human), P20309 = target: M3 (h) (human), P20309
CB1 (h) (human), P21554 = target: T5, CB1 (h) (human), P21554
[5] = target: norepinephrine transporter (h) (human), P23975
Chain of norepinephrine transporter (h) (human), P23975 (P23975 whole entry): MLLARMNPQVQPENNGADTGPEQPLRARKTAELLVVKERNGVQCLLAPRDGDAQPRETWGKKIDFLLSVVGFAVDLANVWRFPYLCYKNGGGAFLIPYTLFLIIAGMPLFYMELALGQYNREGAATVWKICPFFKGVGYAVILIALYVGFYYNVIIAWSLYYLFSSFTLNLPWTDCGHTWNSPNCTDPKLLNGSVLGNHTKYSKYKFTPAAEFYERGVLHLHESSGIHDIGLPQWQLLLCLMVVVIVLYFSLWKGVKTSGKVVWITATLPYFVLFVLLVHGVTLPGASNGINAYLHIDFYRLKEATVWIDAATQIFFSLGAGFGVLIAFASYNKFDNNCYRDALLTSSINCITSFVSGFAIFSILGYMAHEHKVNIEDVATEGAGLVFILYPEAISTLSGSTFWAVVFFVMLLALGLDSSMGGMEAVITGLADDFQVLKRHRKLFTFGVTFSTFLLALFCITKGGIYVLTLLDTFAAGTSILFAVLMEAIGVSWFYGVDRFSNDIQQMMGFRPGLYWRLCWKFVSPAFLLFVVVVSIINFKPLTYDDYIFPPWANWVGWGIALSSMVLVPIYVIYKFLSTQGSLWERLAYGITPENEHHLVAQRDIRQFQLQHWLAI

Chain of H2 (h) (human), P25021 (P25021 whole entry): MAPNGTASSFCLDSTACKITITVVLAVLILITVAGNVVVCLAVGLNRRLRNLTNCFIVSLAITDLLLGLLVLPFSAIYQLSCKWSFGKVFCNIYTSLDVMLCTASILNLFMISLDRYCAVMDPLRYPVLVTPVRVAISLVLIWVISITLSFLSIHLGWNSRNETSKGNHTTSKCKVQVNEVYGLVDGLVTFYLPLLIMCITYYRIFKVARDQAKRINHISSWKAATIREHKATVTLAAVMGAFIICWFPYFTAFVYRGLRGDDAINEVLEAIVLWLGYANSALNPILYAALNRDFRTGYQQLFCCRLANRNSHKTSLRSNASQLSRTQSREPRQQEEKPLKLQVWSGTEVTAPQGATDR
Chain of kappa (h) (KOP) (human), P41145 (P41145 whole entry): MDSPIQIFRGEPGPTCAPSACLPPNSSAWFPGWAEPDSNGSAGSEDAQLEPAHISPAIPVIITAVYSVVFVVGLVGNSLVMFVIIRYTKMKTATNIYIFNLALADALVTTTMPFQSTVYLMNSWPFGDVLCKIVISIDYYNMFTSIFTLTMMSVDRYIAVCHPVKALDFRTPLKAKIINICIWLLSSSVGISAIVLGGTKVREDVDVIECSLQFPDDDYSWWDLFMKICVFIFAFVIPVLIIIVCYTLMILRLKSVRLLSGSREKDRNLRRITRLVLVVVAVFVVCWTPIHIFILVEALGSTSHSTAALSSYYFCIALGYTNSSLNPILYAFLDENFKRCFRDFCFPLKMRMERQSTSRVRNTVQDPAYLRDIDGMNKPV

% Inhibition of Specific Binding (H2 (h) (human), P25021) [%]	% Inhibition of Specific Binding (M2 (h) (human), P08172) [%]	% Inhibition of Specific Binding [1] [%]	% Inhibition of Specific Binding [2] [%]	% Inhibition of Specific Binding [3] [%]	% Inhibition of Specific Binding [4] [%]	% Inhibition of Specific Binding (ETA (h) (human), P25101) [%]	% Inhibition of Specific Binding (M3 (h) (human), P20309) [%]	% Inhibition of Specific Binding (CB1 (h) (human), P21554) [%]	% Inhibition of Specific Binding [5] [%]	Binder
-5	-4	2	-11	-9	7	-18	10	5	-8	CPPTQFCD (here or on the partner: N-terminal hexanoyl (Hex); Cys1 and Cys7 cyclised through tMeBn carrying DOTA-PP; C-terminal amide) [Hex-[Cys(tMeBn(DOTA-PP))-Pro-Pro-Thr-Gln-Phe-Cys]-Asp-NH2 (3BP-3407)]
-16	7	-12	8	2	10	6	1	-7	-5	CPPTQFC (here or on the partner: N-terminal hexanoyl (Hex); Cys1 and Cys7 cyclised through tMeBn carrying DOTA-AET; free C-terminal acid (-OH)) [Hex-[Cys(tMeBn(DOTA-AET))-Pro-Pro-Thr-Gln-Phe-Cys]-OH (3BP-3554)]
